{"source": "paper PMC2852416", "about": "“Modular Insulators: Genome Wide Search for Composite CTCF/Thyroid Hormone Receptor Binding Sites”", "key": {"GST-TR (TRbeta) [1]": {"target": "T1, GST-TR (TRbeta) (human, UniProt P10828 1-461)", "T1 sequence": "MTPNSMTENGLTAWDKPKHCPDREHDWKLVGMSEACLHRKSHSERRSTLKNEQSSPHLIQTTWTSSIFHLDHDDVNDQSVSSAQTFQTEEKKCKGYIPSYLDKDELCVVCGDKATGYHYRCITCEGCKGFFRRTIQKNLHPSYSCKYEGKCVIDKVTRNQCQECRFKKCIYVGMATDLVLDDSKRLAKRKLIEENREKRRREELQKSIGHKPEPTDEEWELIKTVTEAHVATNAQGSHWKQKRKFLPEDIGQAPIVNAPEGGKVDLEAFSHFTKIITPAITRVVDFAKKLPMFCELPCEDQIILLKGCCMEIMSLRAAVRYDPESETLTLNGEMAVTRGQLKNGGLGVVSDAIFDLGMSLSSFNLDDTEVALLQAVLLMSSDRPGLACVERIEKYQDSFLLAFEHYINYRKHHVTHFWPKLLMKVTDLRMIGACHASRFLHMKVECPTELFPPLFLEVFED", "experiment": "competition; mutated F2 against COMT DR4 probe; PBS pH 7.4, 5 mM MgCl2, 1 mM ZnCl2, 1 mM DTT, 0.1% NP-40, 10% glycerol, 200 ng/ul pdIdC, 25-100 ng/ul salmon sperm DNA, 20 min room temperature; 5% PAGE in TAE", "conditions": "protein: recombinant; tags: GST; 5' overhangs 4 nt"}, "GST-TR (TRbeta) [2]": {"target": "T1, GST-TR (TRbeta)", "experiment": "competition; 50-fold excess against COMT DR4 probe; PBS pH 7.4, 5 mM MgCl2, 1 mM ZnCl2, 1 mM DTT, 0.1% NP-40, 10% glycerol, 200 ng/ul pdIdC, 25-100 ng/ul salmon sperm DNA, 20 min room temperature; 5% PAGE in TAE", "conditions": "protein: recombinant; tags: GST; label: 32P; 5' overhangs 4 nt"}, "GST-TR (TRbeta) [3]": {"target": "T1, GST-TR (TRbeta)", "experiment": "EMSA; PBS pH 7.4, 5 mM MgCl2, 1 mM ZnCl2, 1 mM DTT, 0.1% NP-40, 10% glycerol, 200 ng/ul pdIdC, 25-100 ng/ul salmon sperm DNA, 20 min room temperature; 5% PAGE in TAE", "conditions": "protein: recombinant; tags: GST; label: 32P; blunt"}}, "data": [{"binder": "F2mut TRE (dsDNA) DNA 1: AGCTTTTAGTTACTTATTGGGTCCAGCTGATCCCAG DNA 2: GATCCTGGGATCAGCTGGACCCAATAAGTAACTAAA", "values": [{"measurement": "binding result", "setting": "GST-TR (TRbeta) [1]", "result": "no binding"}]}, {"binder": "F2 TRE (ER6) (dsDNA) DNA 1: AGCTTTTAGTTACTTATTGACCCCAGCTGAGGTCAG DNA 2: GATCCTGACCTCAGCTGGGGTCAATAAGTAACTAAA", "values": [{"measurement": "binding result", "setting": "GST-TR (TRbeta) [2]", "result": "binds"}]}, {"binder": "COMT DR4 (dsDNA) DNA 1: ACCCGAGGGCACCAGAGGGCACGAGA DNA 2: TCTCGTGCCCTCTGGTGCCCTCGGGT", "values": [{"measurement": "binding result", "setting": "GST-TR (TRbeta) [3]", "result": "binds"}]}]}
